Test results: paper PMC4521836
Where two headings read alike, the source gives them in different places.

Biological target: T1, IscR (Pseudomonas aeruginosa PAO1) (UniProt Q9HXI7)
T1 sequence: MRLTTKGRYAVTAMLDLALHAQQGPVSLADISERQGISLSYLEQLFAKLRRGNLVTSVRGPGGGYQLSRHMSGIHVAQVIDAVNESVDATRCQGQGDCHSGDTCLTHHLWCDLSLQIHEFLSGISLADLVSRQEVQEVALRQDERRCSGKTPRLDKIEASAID
Experiment: EMSA

| Sequence | binding | binding (20 mM Tris-HCl pH 8.0, 50 mM KCl, 4 mM MgCl2, 0.5 mM EDTA, 0.02 mg/ml BSA, 5 mM DTT, 10% glycerol, 200 ng poly(dI-dC), 3 fmol probe in 25 ul, 25 C 20 min, 7% …) |
| --- | --- | --- |
| GTCAACCGCAAGCGCTGATCGGCCGCTGGCTATCCCCGTCAGCGGGGATATTTACAAGCCTTGCGGGTGTTTCTGCCGGGTGCTTTGCGGGACACTAGGGGAGTATCGGTATCCGGAGCGGACCATGACCGCCAGCGAAGAGAAATTCACCCGCCAGACGCTGCTCGACGTGCAGCCTCTGACT (double strand) [fprB promoter fragment, IscR site GCC to TTT] | no binding |  |
| GTCAACCGCAAGCGCTGATCGGCCGCTGGCTATCCCCGTCAGCGGGGATAGCCACAAGCCTTGCGGGTGTTTCTGCCGGGTGCTTTGCGGGACACTAGGGGAGTATCGGTATCCGGAGCGGACCATGACCGCCAGCGAAGAGAAATTCACCCGCCAGACGCTGCTCGACGTGCAGCCTCTGACT (double strand) [fprB promoter fragment (native), 184 bp] |  | binds |
